Assay: soluble on expression in E. coli; label from the status in PepcDB or PDB records

Soluble on expression in E. coli, not soluble:
MGSDKIHHHHHHMARLGVDFGTSNTAAGLVQAGHPRVLPLEPGAQTLPTAVFIDFAARRYVYGTDAARAMMDGQEGRFLRGLKSILGTPLAREPRMFLNERLTLIEVIARFLAEIRTRAERLSGERFDRALSGRPVHFHSASAERDAQACTDLHDAYLMAGFSEVCFLPEPEAAALAVAGQGRMLIVDIGGGTSDFTLCDRRGTTTRMLASRGLRIGGTDFDRVLSLDHAMPLLGYEAQIGAELGEASHSAPRALFHDLASWEKIAFVYDPATLREVRRWVRLAEQPRLFERLAEVLESHLGHDVAYAVEAGKIAANGAAAGRIALDIVERGLGADLGNAAMQAALAGFADEIATCAMQTVRDAGVGPDSVDQVVFVGGSSLMGVIRAALARVLPGAEQQDSEVFTAVVHGLALASEDQ
MGSDKIHHHHHHMASFPELPALRRLATLGRSWGLLSDFKYEQTRPDIFYGNLALDTSSLVAALSEDISGAGLNDLKVLDVGGGPGYFAEAFETLGATYFSVEPDVGEMSAAGIDVHGSVRGSGLDLPFLPDSFDVVYSSNVAEHVSAPWELGEEMLRVTRSGGLAILSYTIWLGPFGGHETGLWEHYVGGEFARDRYTKKHGHPPKNVFGESLFNVSCREGLEWGASVGNAELVAAFPRYHPYWVWWMVKVPVLREFAVSNLVLVFKKH
MGSDKIHHHHHHMATEAQVLEALQATMSAAYTRGLSAAKPQWNMIATEVPSAGAANFYGWLKDLPGIVEWTGARQLANLGKHGYSIENKTFESSISISRDNVDDDQIGQYSVIAQNYGDQVAYFPDTLAYPLLKAGFTTLCYDGQNFFDTDHPLATTPATTFSNVIGDPATDTGEPWFLIDDTKVLKPIVFQNRRPFVFKNMNPNEEYTWFNNKYAAGVDGRCNVGFSFPQLAIGSKAALTEANYAAAKKLLLKMKKVDGTPIGTRATKLVVGPDNEAAAKKLISRMLIEGGDTNIYYNDVEIVVSPLVTA
MGSDKIHHHHHHMATFTRKAIMQTFLHILKNKPLDRITVKDICEQCEINRNTFYYYFKDIYDVLEAIFEDEVRLVMDEAKEGVTFHDAYARVAALILNNREAIMHIYASENGRVLRTYLDAVVTQVVRRFVLEKAEGYSLDDSDIAFITAFYSNGIVGSTIKWIERGSMMSRLPENITANGVGLSKSQYNRDIVKRIGDSFDATIYDMIECCL
MGSDKIHHHHHHMATLSTVPRIHYLRVQNFRALRNIELKNITPLTVLLGPNGSGKTTLFDVFNFLSECFQGGLRQAWDKRGRAKELKTRGADGPVVIEIKYRESKATPLITYHLSIDEGPKGPVVAEEWLAWTRGTQGRPWRFLDYRLGKGVVVGGELPDEKDERLDVPLRSAELLAVNTLGQIAQHPRVAALRDFITDWYVSYLSVDNTRTQPEAGPMEQLSKTGDNLPNVIQYLQETHPEQLQSITEVLRRRIPRLERIDATPMPDGRLLLEVKDAPFDKPVLSKFASDGTLKMLAYLTVLYDPEPPRFIGIEEPENFLHPRLLPELGEECRHASERTQLLVTTHSPFFLNSCRPDEVRILFRDEQGHTQVRTAADIEGIPEFVAAGASLGHLWIEGQFGMSDPLRNQGAPWTIEGARRGH
MGSDKIHHHHHHMATPEFKYQKPFPMGDDTTEYYLLTKEYVSVDKFGDHDVLKVEPEALRLLARTAFHDIAFYLRPEHQQQVARILSDPEASENDKFVALTFLRNAEVSAKGQLPFCQDTGTAIILGKKGQQVWTGGHDEEQLSHGVYDTYTQENLRYSQNAPLDMYKEVNTGCNLPAQIDLMAVDGMEYDFLCIAKGGGSANKTYLYQETKALLNPKTLVNFLVDKMSSLGTAACPPYHIAFVIGGTSAETNLKTVKLASAKYYDNLPTSGNEGGRAFRDVELEKEVLEAAYHLGLGAQFGGKYFAHDVRIIRLPRHGASCPVGMGVSCSADRNIKAKINKDGIWIEKMETNPTRLIPESMREGTEGTVVKVDLNRPMPEILRELSQYPVSTRLSLSGTIIVGRDIAHAKLKERIDRGEGLPDYIKNHPIYYAGPAKTPKGMPSGSFGPTTAGRMDSYVDLFQSHGGSMVMIAKGNRSQQVTDACKKYGGFYLGSVGGPAAILAQDSIKKVECLEYPELGMEAIWKIEVEDFPAFILVDDKGNDFFTQIREKCKGCALH
MGSDKIHHHHHHMATTIKNRYEFVLFFDVENGNPNGDPDADNMPRIDPETSFGLVSDVCIKRKIRNYVALLKENEDDYQIYVQEKAVLNNQHKKAYEHFKIKPESKKLPKDTAQAEAITQFMCKNFYDIRTFGAVMTTEVNCGQVRGPVQLGFSRSLDPIVPQEITITRMAVTNERDLEKERTMGRKHIVNYALYRAEGFISAPLADKTGFSEEDLELLWDALINMFDHDRSAARGKMSSRKLYVFKHDSKLGNAPASILFDAITVKKINGNKPVRNFSDYEISVTGNEIPQGVEVLELL
MGSDKIHHHHHHMAVWNANEMPERDRFPYWREVLCEAYIALNPILEGEQRFKGEVKANLLDCINVTTISSSRQKIHRRRLDISRMPHEVYFLNLQVKGQCRMMQGSREALLEPGDFSLVDSTEPYLNDYCSDDWTQYSFRIPRAMLKPLLKQADKQTAIRFTSAHPIASVAIDYLKSVAQNAEHIGTASTPIANHIVDLVAMAAGVSTTEEDRARGTLRSQLSRSVIQFIGAHAADPTLTPAKAAQHFKISVRYVHRLLEESGETFSRLLLKRRLERCADDLRAEAAISISEIAFRWGFNDLSHFSKTFRHHFGVAPRDYRGQ
MGSDKIHHHHHHMAYPFNHKEFVAMMEQYNLKSNSITIPEHTILNDLVTENRDCVYLLKSGILAGYIDFDNDKIYSIFTSNFFMGYYTIFDNASLVLTYQTLTECELIIYKKKDIEYSLSLFPENFSFQYTIMRTIAKHGYYKSLLQYRDKKDQLAFVFEMLVKILDIPVEDGVAVLPKSISTTVIKNYCTLSKAFFYSQLKELKEAGIISKVKLQWRINMEALSEKNNSIN
MGSDKIHHHHHHMCRWLAYSGRPIFLDSLVTQPSHSLVAQSLHSQLNVSSAGVLLSTNGDGFGIGWYHKRPEPGVFKDDKPAWHDENLKNLCHQVKSHIFFAHIRATTTGDVQRTNCHPFQYKNWLFQHNGHVSHFDKIRRELQLEIAPELYPHLRGTTDSETFFLLALTYGLMEQPKQAMQKMVRRVITALEGVDKAGVLNLSCALSDGEKLFILRFAHNEAAMTQFYSADTDCFHEFNGQCNPIPNGSLVVVSEPLDKASDKWTSIPTNTFTSIIKNRVHSEVFL
MGSDKIHHHHHHMDDGYIAEFALYRSLMKNLPWDTYQLFIDVARNGGLTGAVQSTGLSAATLGRRMVELEQKLGRILFHRAQTGYTLTVDGRALLDHLKSFEAAERGIDLWRQQTSQPALVRVTAGTWISWLIAQNLPKLCRSNDRFRLDLHITEERAALAHRETDIGIRAFEPQESNLARVPLGEVAYAAYRHRLADELEGQPWIAVAQDAAISAYLKWPHQHKAEQILITVNRPRSLKDMAVSGMGLAVLPCFVGDSHPQLQRVGDEITELRHRQWLVTNNDDRHRSEIRDCAGRLVTLMRDFSDAFAGRR
MGSDKIHHHHHHMDDTTPPETPAVDDLLQRIAGAYDTLPRQLKRIASYIDEHRSSVMMDRTSDIAQRCGVHPSAVVRFAQRFGFSGFSDLQAVFKDAYTGQNPTVQSYQQRIRSLIDGEAGPMTGGAVARQFIDASRAGLDELAAGLDDDQFDAAVTMLERAENIYVVGVRRSFPVASYIVYALQHTAKRVHLVSGLGGMYREQIRSVKKGDVVIAISFAPYGKETQYCLRAARHNHAQTLVVTDSRLSPLARDASAHLLVKEGSAFAFRSLTSTICLCQALFIALAYRLELNVEEVKDIGGYDD
MGSDKIHHHHHHMDGEGMSVGHYENFPVGSLILPRRLRKPVHAVYAFARTADDMADEGSMPSEARLSGLEGLRRELDVLASGGRSAHPLIARLDAEAVVPFGLDLQPFYDLLSAFSQDVVKTRYAHFGDLTDYCRRSANPVGRIMLALYGKTDAVCVAQSDGICTALQLVNFWQDVAVDWQKGRVYIPQDDLLKFGVSEEQIAAGRADAAFQRLMAYECRRAFRMLKAGSPLARELKGRIGLELRMIVLGAQLILQKLDACRYDVFAQRPVLDKKDWLIMLKRALWK

— the DeepSol protein solubility set
